From US20240368275A1 (ELPIS BIOPHARMACEUTICALS, published 2024) come the findings set out here.

For experiment [1], the target named is T1, human Nectin4-HIS tagged recombinant protein (human, UniProt Q96NY8 32-349).
T1 construct: also called hNectin4-HIS; Nectin4 HIS tagged protein; not shown: HIS tag
T1 sequence (looked up): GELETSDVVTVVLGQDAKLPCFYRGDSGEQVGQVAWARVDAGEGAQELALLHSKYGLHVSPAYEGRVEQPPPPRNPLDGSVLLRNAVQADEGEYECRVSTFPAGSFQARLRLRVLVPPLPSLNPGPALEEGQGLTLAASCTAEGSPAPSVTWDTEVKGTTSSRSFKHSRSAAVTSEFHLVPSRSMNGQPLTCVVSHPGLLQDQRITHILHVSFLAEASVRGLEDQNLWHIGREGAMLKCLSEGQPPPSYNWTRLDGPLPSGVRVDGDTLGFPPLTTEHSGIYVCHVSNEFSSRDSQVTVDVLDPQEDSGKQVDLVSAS
Put plainly: ELISA, coated human Nectin4-HIS, IgG titrated, anti-hFc HRP. How it is done: An ELISA assay was developed to determine the EC₅₀ of exemplary anti-Nectin4 IgG antibodies. Briefly, 384 well plate was immobilized with human Nectin4-HIS tagged recombinant protein at final concentration of 2 ug/mL in 1×PBS in total volume of 25 uL per well. The plate was incubated overnight at 4° C. followed by blocking with 80 uL of superblock per well for 1 hour. Titration of purified anti-Nectin4 IgG starting at 200 nM 2-fold serial dilution, 25 uL was added to human Nectin4 immobilized wells and incubated for 1 hour with shaking. The Nectin4 binding was detected by adding 25 uL of anti-hFc HRP diluted at 1:5000 in 1×PBST. In between each step, the plate was washed 3 times with 1×PBST in a plate washer. The plate was then developed with 20 ul of TMB substrate for 5 mins and stopped by adding 20 ul of 2N sulfuric acid. The plate was read at OD450 nm Biotek plate reader and then plotted in Prism 8.1 software.
Background: An ELISA detects its analyte on a solid surface through an enzyme-linked reagent.

Experiment [2] deals with T2, full-length human Nectin4 with C-terminal flag and Myc tags on CHO cells (human, UniProt Q96NY8 32-510).
T2 construct: whole, on cells; also called Nectin4/CHO; CHO/Nectin4; not shown: C-terminal flag and Myc tags of pCMV6-Entry vector
T2 sequence (looked up): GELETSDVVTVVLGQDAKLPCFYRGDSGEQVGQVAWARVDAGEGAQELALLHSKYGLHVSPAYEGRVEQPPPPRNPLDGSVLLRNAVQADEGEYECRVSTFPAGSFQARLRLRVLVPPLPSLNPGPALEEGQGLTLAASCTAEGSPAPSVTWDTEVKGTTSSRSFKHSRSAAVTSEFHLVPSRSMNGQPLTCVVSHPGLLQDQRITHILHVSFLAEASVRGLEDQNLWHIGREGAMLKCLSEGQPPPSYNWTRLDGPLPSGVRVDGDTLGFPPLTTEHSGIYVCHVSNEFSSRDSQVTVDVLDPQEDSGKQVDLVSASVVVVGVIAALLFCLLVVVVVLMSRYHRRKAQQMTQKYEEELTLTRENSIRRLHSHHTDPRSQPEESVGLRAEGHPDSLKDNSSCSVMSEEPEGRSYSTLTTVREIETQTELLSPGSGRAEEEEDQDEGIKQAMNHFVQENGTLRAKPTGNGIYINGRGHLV
The experiment in a line: flow cytometry, IgG on Nectin4/CHO cells, anti-hFc Alexa fluor 647. As for the experimental part:
200 nM of purified anti-Nectin4 IgG antibodies were diluted in full medium and incubated with Nectin4/CHO and CHO cells in 96 wells plate on ice for 1 hour. Cells were spun down at 1200 rpm for 5 minutes at 4° C. to remove primary antibodies. Cells were then washed once with 200 uL of full medium per well. Samples were detected with anti-hFc Alexa fluor 647 by adding 100 uL of diluted secondary antibody and incubated at 4° C. for 30 minutes in the dark. Samples were spun down at 1200 rpm for 5 minutes at 4° C. and washed twice with 200 uL of 1×PBS per well. Reconstituted samples in 200 uL of 1×PBS and read on Attune NxT cytometer. Analysis was done by Attune NxT software plotting the overlay histogram of […] proteins binding onto both negative and target cell lines.
(In flow cytometry, cells or beads pass a laser one at a time.)

For experiment [3], the target named is T2, full-length human Nectin4 with …. Put plainly: flow cytometry on CHO/Nectin4 cells. As for the experimental part:
Nectin4/CHO Nectin4 cells were plated at 100,000 cells/well in a 96-well plate in 50 μL of full media. Cells were rested 1 hour at 37° C. Anti-Nectin4/CD3 was 3-fold serial titrated from 50 nM. 50 μL was added to the cells and incubated for 1 hours with shaking. Samples were washed one time with flow buffer. […] Samples were washed once with flow buffer. Samples were stained with 100 uL Zombie Fixable Viability Dyes (1:800 dilution) per well and incubated in dark at room temperature for 30 mins. Samples were spun down at 1200 rpm for 5 minutes and washed once with 200 uL flow buffer. Reconstituted samples in 200 uL of flow buffer and read on Attune NxT cytometer. EC₅₀ values for Nectin4 Binding were determined using Prism software.

The target in experiment [4] is T1, human Nectin4-HIS tagged recombinant …. Put plainly: ELISA, coated Nectin4 HIS tagged protein, bispecific titrated, anti-Human HRP. As for the experimental part: An ELISA assay was developed to determine the EC₅₀ of anti-Nectin4/CD3 bispecific antibodies. Briefly, 384 well plate was immobilized with human CD3E or Nectin4 HIS tagged protein at final concentration of 2 ug/mL in 1×PBS in total volume of 25 uL per well. The plate was incubated overnight at 4° C. followed by blocking with 80 uL of superblock per well for 1 hour. Purified anti-Nectin4/CD3 was 3-fold serial titrated from 100 nM. 25 uL was added to human Nectin4/CD3 immobilized wells and incubated for 1 hour with shaking. The CD3E or Nectin4 binding was detected by adding 25 uL of anti-Human HRP diluted at 1:10000 in 1×PBST. In between each step, the plate was washed 3 times with […] in a plate washer. The plate was then developed with 20 ul of TMB substrate for 5 mins and stopped by adding 20 ul of 2N sulfuric acid. The plate was read at OD450 nm Biotek plate reader and then plotted in Prism 8.1 software to calculate EC50.

The target in the next experiment is T3, CD3 on Jurkat cells (UniProt P07766 23-207, limits assumed).
T3 construct: whole, on cells; the whole CD3/TCR complex stands on the cells; also called Jurkat CD3
T3 sequence (P07766 23-207 limits assumed): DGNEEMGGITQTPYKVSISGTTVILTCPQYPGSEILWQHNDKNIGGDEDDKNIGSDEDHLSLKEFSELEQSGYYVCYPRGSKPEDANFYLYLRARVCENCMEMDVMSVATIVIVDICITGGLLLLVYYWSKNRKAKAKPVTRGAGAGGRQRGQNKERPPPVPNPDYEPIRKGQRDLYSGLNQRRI
Put plainly: flow cytometry on Jurkat cells. As for the experimental part:
Jurkat cells were plated at 100,000 cells/well in a 96-well plate with 50 μL of full media. Anti-Nectin4/CD3 antibodies were 3-fold serial titrated from 20 nM. 50 μL was added to the cells and incubated for 1 hours at room temperature with shaking. Samples were washed one time with flow buffer. […] Samples were washed once with flow buffer. Samples were stained with 100 uL Zombie Fixable Viability Dyes at 1:800 dilution per well and incubated in dark at room temperature for 30 mins. Samples were spun down at 1300 rpm for 5 minutes and washed once with 200 uL flow buffer. Reconstituted samples in 200 uL of flow buffer and read on Attune NxT cytometer. EC50 values for CD3 binding were calculated using Prism 8.1 software.
Similar methods of above mentioned were used to measure the binding activities of anti-Nectin4/CD3/IL-2 complexes to CHO/Nectin4 and Jurkat cells, respectively.

B1: 2020EP47-F02 IgG (EP544/EP545) (antibody, V domains shown)
VH: QVQLQQWGAGLLKPSETLSLTCAVYGGSFSGYYWSWIRQPPGKGLEWIGEINHSGSTNYNPSLKSRVTISVDTSKNQFSLKLSSVTAADTAVYYCARGWYLGFDYWGQGTLVTVSS
VL: QSVLTQPRSVSGSPGQSVTISCTGTSRDVGGYDYVSWYQQYPGKAPKLMISGVSERPSGVPDRFTGSRSANTASLTISGLQTDDEANYYCCSYAGSFTWVFGDGTKLTVLG
notes: Human IgG1 with lambda light chain; entries without signal peptide used
With B1, the EC50 – broadly, the concentration that produces a half-maximal response – was 0.119 nM in experiment [1] and 0.125 nM in experiment [2].

B2: EP499/EP378/EP289 anti-Nectin4/CD3 bispecific antibody (bispecific antibody)
heavy 1: EVQLVQSGAEVKKPGASVKVSCKASGYTFTGYYMHWVRQAPGQGLEWMGRINPNSGGTNYAQKFQGRVTMTRDTSISTAYMELSGLRSDDTAVYFCARVTYNIGWYIDYWGQGTLVTVSSASTKGPSVFPLAPSSKSTSGGTAALGCLVKDYFPEPVTVSWNSGALTSGVHTFPAVLQSSGLYSLSSVVTVPSSSLGTQTYICNVNHKPSNTKVDKKVEPKSCDGGGGSGGGGSEVQLVESGGGLVQPGGSLRLSCAASGFTFNTYAMNWVRQAPGKGLEWVARIRSKYNNYATYYAASVKGRFTISRDDSKNSLFLQMNSLKTEDTAVYYCVRHGNFGNSYVSWFAYWGQGTLVTVSSGGGGSGGGGSGGGGSGGGGSQTVVTQEPSLTVSPGGTVTLTCRSSTGAVTTSNYANWVQEKPDHLFTGLIGGTNKRAPGVPARFSGSLLGGKAALTLSGVQPEDEAIYFCALWYSNLWVFGSGTKVTVLEPKSCDKTHTCPPCPAPEAAGGPSVFLFPPKPKDTLMISRTPEVTCVVVDVSHEDPEVKFNWYVDGVEVHNAKTKPREEQYNSTYRVVSVLTVLHQDWLNGKEYKCKVSNKALGAPIEKTISKAKGQPREPQVCTLPPSRDELTKNQVSLSCAVKGFYPSDIAVEWESNGQPENNYKTTPPVLDSDGSFKLVSKLTVDKSRWQQGNVFSCSVMHEALHNHYTQKSLSLSPGK
heavy 2: not shown
light: QAVVTQPPSVSVAPGKTATITCGGNNIGSKGVHWYQQKPGQAPVLVIYYDTDRPSGIPERLSGSNSGNTATLTISRVEAGDEADYYCQVWDSSSDHPVFGGGTKLTVLGQPKANPTVTLFPPSSEELQANKATLVCLISDFYPGAVTVAWKADGSPVKAGVETTKPSKQSNNKYAASSYLSLTPEQWKSHRSYSCQVTHEGSTVEKTVAPTECS
notes: Bivalent for Nectin4; EP499 carries a humanized SP34 scFv between CH1 and hinge, hole; also called EP499/378/289
With B2, the EC50 in experiment [3] is 0.235 nM; in experiment [4], 0.025 nM.

B3: EP697/EP378/EP289 anti-Nectin4/CD3 bispecific antibody (bispecific antibody)
heavy 1: EVQLVQSGAEVKKPGASVKVSCKASGYTFTGYYMHWVRQAPGQGLEWMGRINPNSGGTNYAQKFQGRVTMTRDTSISTAYMELSGLRSDDTAVYFCARVTYNIGWYIDYWGQGTLVTVSSASTKGPSVFPLAPSSKSTSGGTAALGCLVKDYFPEPVTVSWNSGALTSGVHTFPAVLQSSGLYSLSSVVTVPSSSLGTQTYICNVNHKPSNTKVDKKVEPKSCDGGGGSGGGGSEVQLVESGGGLVQPGGSLRLSCAASGFTFNTYAMNWVRQAPGKGLEWVARIRSKANAYATYYAASVKGRFTISRDDSKNSLFLQMNSLKTEDTAVYYCVRHGNFGNSAVSWFAYWGQGTLVTVSSGGGGSGGGGSGGGGSGGGGSQAVVTQEPSLTVSPGGTVTLTCASSTGAVTTSNYANWVQEKPDHLFTGLIGGTNKRAPGVPARFSGSLLGGKAALTLSGVQPEDEAEYYCALWYSNLWVFGGGTKLTVLEPKSCDKTHTCPPCPAPEAAGGPSVFLFPPKPKDTLMISRTPEVTCVVVDVSHEDPEVKFNWYVDGVEVHNAKTKPREEQYNSTYRVVSVLTVLHQDWLNGKEYKCKVSNKALGAPIEKTISKAKGQPREPQVCTLPPSRDELTKNQVSLSCAVKGFYPSDIAVEWESNGQPENNYKTTPPVLDSDGSFKLVSKLTVDKSRWQQGNVFSCSVMHEALHNHYTQKSLSLSPGK
heavy 2: not shown
light: QAVVTQPPSVSVAPGKTATITCGGNNIGSKGVHWYQQKPGQAPVLVIYYDTDRPSGIPERLSGSNSGNTATLTISRVEAGDEADYYCQVWDSSSDHPVFGGGTKLTVLGQPKANPTVTLFPPSSEELQANKATLVCLISDFYPGAVTVAWKADGSPVKAGVETTKPSKQSNNKYAASSYLSLTPEQWKSHRSYSCQVTHEGSTVEKTVAPTECS
notes: EP697: two residue mutations within HCDR2 and a single point mutation within HCDR3 of the anti-CD3 scFv of EP500; also called EP697/378/289
As for B3, the binding result with CD3 on Jurkat cells is “no binding”.

B4: EP500/EP378/EP289 anti-Nectin4/CD3 bispecific antibody (bispecific antibody)
heavy 1: EVQLVQSGAEVKKPGASVKVSCKASGYTFTGYYMHWVRQAPGQGLEWMGRINPNSGGTNYAQKFQGRVTMTRDTSISTAYMELSGLRSDDTAVYFCARVTYNIGWYIDYWGQGTLVTVSSASTKGPSVFPLAPSSKSTSGGTAALGCLVKDYFPEPVTVSWNSGALTSGVHTFPAVLQSSGLYSLSSVVTVPSSSLGTQTYICNVNHKPSNTKVDKKVEPKSCDGGGGSGGGGSEVQLVESGGGLVQPGGSLRLSCAASGFTFNTYAMNWVRQAPGKGLEWVARIRSKYNNYATYYAASVKGRFTISRDDSKNSLFLQMNSLKTEDTAVYYCVRHGNFGNSYVSWFAYWGQGTLVTVSSGGGGSGGGGSGGGGSGGGGSQAVVTQEPSLTVSPGGTVTLTCASSTGAVTTSNYANWVQEKPDHLFTGLIGGTNKRAPGVPARFSGSLLGGKAALTLSGVQPEDEAEYYCALWYSNLWVFGGGTKLTVLEPKSCDKTHTCPPCPAPEAAGGPSVFLFPPKPKDTLMISRTPEVTCVVVDVSHEDPEVKFNWYVDGVEVHNAKTKPREEQYNSTYRVVSVLTVLHQDWLNGKEYKCKVSNKALGAPIEKTISKAKGQPREPQVCTLPPSRDELTKNQVSLSCAVKGFYPSDIAVEWESNGQPENNYKTTPPVLDSDGSFKLVSKLTVDKSRWQQGNVFSCSVMHEALHNHYTQKSLSLSPGK
heavy 2: not shown
light: QAVVTQPPSVSVAPGKTATITCGGNNIGSKGVHWYQQKPGQAPVLVIYYDTDRPSGIPERLSGSNSGNTATLTISRVEAGDEADYYCQVWDSSSDHPVFGGGTKLTVLGQPKANPTVTLFPPSSEELQANKATLVCLISDFYPGAVTVAWKADGSPVKAGVETTKPSKQSNNKYAASSYLSLTPEQWKSHRSYSCQVTHEGSTVEKTVAPTECS
notes: Bivalent for Nectin4; EP500 carries a humanized SP34 scFv between CH1 and hinge, hole; template of EP695, EP696 and EP697; also called EP500/378/289
Take B4: the EC50 in experiment [3] is 0.234 nM; in experiment [4] it was 0.022 nM.
